Measurements published in US20210169980A1 (HONG KONG UNIVERSITY OF SCIENCE AND TECHNOLOGY, published 2021).
Read-outs that look alike come from different tables or passages of the source.

Tests used:
GABARAP [1] = biological target: T1, GABARAP (human, UniProt O95166 1-117, limits assumed); experiment: ITC
T1 construct: elsewhere only "mammalian"

LC3A [2] = biological target: T2, LC3A (human, UniProt Q9H492 1-121); experiment: ITC
GABARAP [3] = biological target: T1, GABARAP; experiment: ITC; without the C-helix extension (LIR-S, aa 448-461)
GABARAP [4] = biological target: T1, GABARAP; experiment: ITC; remark: listed apart in the source
[..]1 = [..]1 (human, UniProt Q9H0R8 1-117); experiment: competition-based ITC (asterisk; legend paragraph 51)
GABARAPL2 [5] = biological target: T3, GABARAPL2 (human, UniProt P60520 1-117, limits assumed); experiment: as above
T3 construct: also called GATE-16

LC3B [6] = biological target: T4, LC3B (human, UniProt Q9GZQ8 1-125); experiment: ITC
LC3C [7] = biological target: T5, LC3C (human, UniProt Q9BXW4 1-126); experiment: ITC
LC3A [8] = biological target: T2, LC3A; experiment: ITC; remark: listed apart in the source
GABARAP R67E [9] = experiment: ITC
LC3A R70E [10] = experiment: ITC
LGG-2 [11] = biological target: T6, LGG-2 (C. elegans, UniProt Q23536 1-130, limits assumed); experiment: ITC
T6 construct: also called worm orthologue of LC3
T6 sequence (looked up): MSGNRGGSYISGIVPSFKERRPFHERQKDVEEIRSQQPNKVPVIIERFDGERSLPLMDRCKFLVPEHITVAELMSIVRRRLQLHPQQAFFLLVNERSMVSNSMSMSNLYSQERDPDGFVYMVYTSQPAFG

LGG-1 [12] = biological target: T7, LGG-1 (C. elegans, UniProt Q09490 1-123, limits assumed); experiment: ITC (table of Kd values)
T7 construct: Purified protein in the ITC; also called worm orthologue of GABARAP

LC3B [13] = biological target: T4, LC3B; experiment: ITC (table of Kd values)
GABARAP [14] = biological target: T1, GABARAP; experiment: ITC; remark: listed apart in the source
LGG-1 [15] = biological target: T7, LGG-1; experiment: ITC
GABARAP [16] = biological target: T1, GABARAP; experiment: ITC (table of Kd values)
LC3A [17] = biological target: T2, LC3A; experiment: ITC; remark: listed apart in the source
LC3B [18] = biological target: T4, LC3B; experiment: ITC; remark: listed apart in the source
LC3C [19] = biological target: T5, LC3C; experiment: ITC; remark: listed apart in the source
GABARAPL2 [20] = biological target: T3, GABARAPL2; experiment: ITC
LGG-2 [21] = biological target: T6, LGG-2; experiment: ITC (table of Kd values)
GABARAP R67E [22] = experiment: ITC; remark: listed apart in the source
LC3A R70E [23] = experiment: ITC; remark: listed apart in the source
LC3A [24] = biological target: T2, LC3A; experiment: ITC; remark: listed apart in the source
GABARAP [25] = biological target: T1, GABARAP; experiment: ITC; ratio of the binding to GABARAP against that to LC3A

T7 sequence (Q09490 whole entry): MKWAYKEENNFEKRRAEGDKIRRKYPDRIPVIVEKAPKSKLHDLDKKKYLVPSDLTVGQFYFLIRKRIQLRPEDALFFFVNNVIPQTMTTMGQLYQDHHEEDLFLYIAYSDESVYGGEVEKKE
T1 sequence (O95166 whole entry): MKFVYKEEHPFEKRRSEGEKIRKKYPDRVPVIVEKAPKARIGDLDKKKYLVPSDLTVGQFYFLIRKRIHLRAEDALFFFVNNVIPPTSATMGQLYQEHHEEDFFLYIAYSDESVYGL
T3 sequence (P60520 whole entry): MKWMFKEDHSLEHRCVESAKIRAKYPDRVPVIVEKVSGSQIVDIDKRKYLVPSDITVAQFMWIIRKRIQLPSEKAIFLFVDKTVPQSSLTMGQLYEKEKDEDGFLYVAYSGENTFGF
T5 sequence (Q9BXW4 1-126, form in doubt): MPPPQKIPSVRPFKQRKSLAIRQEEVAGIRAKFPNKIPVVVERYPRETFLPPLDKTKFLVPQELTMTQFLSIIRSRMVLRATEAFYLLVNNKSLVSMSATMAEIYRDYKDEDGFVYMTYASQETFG
Chain of LC3A R70E (chain, as listed by the source R70E R70E limits assumed): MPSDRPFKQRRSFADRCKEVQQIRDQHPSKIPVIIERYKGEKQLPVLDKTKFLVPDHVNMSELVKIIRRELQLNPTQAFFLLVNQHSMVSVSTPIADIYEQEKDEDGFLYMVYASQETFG
Chain of GABARAP R67E (chain, as listed by the source R67E R67E limits assumed): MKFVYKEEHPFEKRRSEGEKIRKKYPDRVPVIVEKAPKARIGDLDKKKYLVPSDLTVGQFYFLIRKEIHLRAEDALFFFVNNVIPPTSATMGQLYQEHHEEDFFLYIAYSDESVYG
Chain of [..]1 (Q9H0R8 whole entry): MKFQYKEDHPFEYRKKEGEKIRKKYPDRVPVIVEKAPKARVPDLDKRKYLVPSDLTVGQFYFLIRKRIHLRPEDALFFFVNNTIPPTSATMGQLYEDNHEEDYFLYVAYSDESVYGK

## SSEEIREARQAAASHAPS [AnkG LIR C-helix alone (aa 1993-2010)]
GABARAP [1]
  binding result: no binding
LC3A [2]
  binding result: no binding

B1: human FAM134B LIR without the C-helix extension (LIR-S, aa 448-461) (peptide, UniProt Q9H6L5 448-461, looked up)
peptide: DTEEGDDFELLDQS
notes: range 448-461; also called FAM134B LIR-S
GABARAP [3]
  Kd: 704 nM

## PEDDWTEFSSEEIREA [AnkG LIR construct "1985-2000" (aa 2001-2010 truncated)]
GABARAP [1]
  fold decrease of binding against AnkG LIR (aa 1985-2010): ~200 fold
LC3A [2]
  Kd: 7410 nM
GABARAP [4]
  Kd: 510 nM

## VEEEWVIVSDEEIEEARQKAPLEITEY [AnkB LIR (AnkB WT peptide, human 440 kD AnkB residues 1588-1614)]
[..]1
  Kd: 0.29 nM
GABARAPL2 [5]
  Kd: 0.21 nM
LC3B [6]
  Kd: 4.2 nM
LC3C [7]
  Kd: 10.5 nM
LC3A [8]
  Kd: 3.6 nM
GABARAP R67E [9]
  Kd: 56 nM
LC3A R70E [10]
  Kd: 860 nM
LGG-2 [11]
  binding result: binds
LGG-1 [12]
  Kd: 1.2 nM
LC3B [13]
  Kd: 4.2 nM

B2: AnkB W1592R (peptide)
peptide: VEEERVIVSDEEIEEARQKAPLEITEY
notes: also called AnkB WR; Trp1592Arg mutant of AnkB LIR
LC3A [8]
  Kd: ~26600 nM
GABARAP [14]
  Kd: > 100000 nM
LGG-1 [15]
  binding result: no binding
LGG-2 [11]
  binding result: no binding
GABARAP [16]
  Kd: > 100000 nM

## VEEEWVIVSDERIEEARQKAPLEITEY (also called AnkB E1599R) [E1599R]
LC3A [8]
  Kd: 312 nM
GABARAP [14]
  Kd: 38 nM

## PEDDWTEFSSEEIREARQAAASHAPS [AnkG LIR (AnkG WT peptide, rat 480 kD AnkG residues 1985-2010)]
LC3A [17]
  Kd: 546 nM
LC3B [18]
  Kd: 339 nM
LC3C [19]
  Kd: 2930 nM
GABARAP [1]
  Kd: ~2.6 nM
GABARAPL2 [20]
  Kd: ~40 nM
LGG-1 [12]
  Kd: 1.6 nM
LC3B [13]
  Kd: 339 nM
LGG-2 [21]
  Kd: 210 nM
LC3A [2]
  Kd: 546 nM
GABARAP R67E [22]
  Kd: 114 nM
LC3A R70E [23]
  binding result: no binding

## PEDDWTEFSSEEQREARQAAASHAPS (also called AnkG I1997Q) [I1997Q]
LC3A [2]
  Kd: ~12500 nM
GABARAP [4]
  Kd: 68 nM

B3: AnkG E1991R (modified from rat 480 kD AnkG residues 1985-2010) (peptide)
peptide: PEDDWTRFSSEEIREARQAAASHAPS
notes: also called AnkG ER; Glu1991Arg AnkG LIR
LC3A [24]
  fold lower affinity against AnkG LIR WT: ~10 fold
LGG-2 [11]
  fold weaker binding against LGG-1: ~1000 fold
LGG-1 [12]
  Kd: 8.5 nM
LGG-2 [21]
  Kd: 8470 nM
LC3A [2]
  Kd: 7190 nM
GABARAP [4]
  Kd: 6.9 nM
GABARAP [25]
  selectivity between GABARAP and LC3A: ~1000 fold

## PEDDWTEFSSEEIREQRQAAASHAPS (also called AnkG A2000Q) [A2000Q]
LC3A [2]
  Kd: 8200 nM
GABARAP [4]
  Kd: 741 nM

## PEDDWTEFSSERIREARQAAASHAPS (also called AnkG E1996R) [E1996R]
LC3A [2]
  Kd: ~100000 nM
GABARAP [4]
  Kd: 398 nM

B4: W1989R (peptide)
peptide: PEDDRTEFSSEEIREARQAAASHAPS
notes: Untagged peptide used in ITC; m22 is its mCherry fusion; also called AnkG W1989R; AnkG WR
LGG-1 [12]
  binding result: no binding
LC3B [13]
  binding result: no binding
LGG-2 [21]
  binding result: no binding
LC3A [2]
  binding result: no binding
GABARAP [4]
  Kd: ~12800 nM
